# According to publication PMC4332860:
# Biological target: Human coagulation factor X (human)
# Experiment: SPR; human FX amine-coupled to a CMD500m chip; vector particles 1.25x10^8 to 1x10^9 physical particles per millilitre passed for 3 min at 25 μl/min; 10 mM HEPES pH 7.4, 150 mM NaCl, 5 mM CaCl2, 0.005% Tween 20; reference flow cell subtracted
substance,measurement,value
"AdGFPhCKS17, ΔE1/E3 Ad5 vector particles with CKS17 peptide in place of hexon HVR5 (from UniProt P04133 1-952; P11818 1-581) (complex)",percent reduction of binding against AdGFPhWt,30%
